The text below walks through data of patent publication US20230301998A1 (SANFORD BURNHAM PREBYS MEDICAL DISCOVERY INSTITUTE, published 2023).

The target of one assay is T1, Flag-tagged SHARPIN (human, UniProt Q9H0F6 1-387).
T1 construct: also called Flag-SHARPIN; not shown: FLAG tag
T1 sequence (looked up): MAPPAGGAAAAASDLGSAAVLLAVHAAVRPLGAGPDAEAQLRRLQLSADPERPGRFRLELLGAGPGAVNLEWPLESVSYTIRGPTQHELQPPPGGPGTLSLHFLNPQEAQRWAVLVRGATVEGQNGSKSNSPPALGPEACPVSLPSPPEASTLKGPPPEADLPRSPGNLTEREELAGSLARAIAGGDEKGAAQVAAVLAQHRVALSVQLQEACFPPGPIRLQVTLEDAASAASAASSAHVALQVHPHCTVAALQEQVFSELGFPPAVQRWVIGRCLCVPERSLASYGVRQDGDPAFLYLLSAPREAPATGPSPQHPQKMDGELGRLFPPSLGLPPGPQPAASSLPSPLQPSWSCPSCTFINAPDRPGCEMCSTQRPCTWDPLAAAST
Put plainly: Flag IP of Flag-SHARPIN from WM115 lysate, on-bead tryptic digestion, LC/MS-MS. On the procedure: To identify SHARPIN-interacting proteins, WM115 cells were transfected with Flag-tagged SHARPIN or control empty plasmid. Cell lysates were prepared using 1% Triton X-100 buffer [50 mM Tris-HCl, pH7.4, 1% (v/v) Triton X-100, 150 mM NaCl, 1 mM EDTA, and protease and phosphatase inhibitor cocktails (Thermo Fisher Scientific)]. Lysates were pre-cleared with protein A/G beads (Santa Cruz Biotechnology) for 1 h at 4° C. followed by immunoprecipitation using FLAG-M2-agarose beads (Sigma-Aldrich) overnight at 4° C. Beads were then washed with lysis buffer and TBS containing lx protease inhibitor cocktail before being subjected to on-bead tryptic digestion followed by mass spectrometry. In Vitro Methylation Assay.

Assay [1] addresses T2, Gamma-interferon-inducible protein 16 (IFI16) (human, UniProt Q16666 1-785).
T2 construct: Endogenous protein in WM115 / A375
T2 sequence: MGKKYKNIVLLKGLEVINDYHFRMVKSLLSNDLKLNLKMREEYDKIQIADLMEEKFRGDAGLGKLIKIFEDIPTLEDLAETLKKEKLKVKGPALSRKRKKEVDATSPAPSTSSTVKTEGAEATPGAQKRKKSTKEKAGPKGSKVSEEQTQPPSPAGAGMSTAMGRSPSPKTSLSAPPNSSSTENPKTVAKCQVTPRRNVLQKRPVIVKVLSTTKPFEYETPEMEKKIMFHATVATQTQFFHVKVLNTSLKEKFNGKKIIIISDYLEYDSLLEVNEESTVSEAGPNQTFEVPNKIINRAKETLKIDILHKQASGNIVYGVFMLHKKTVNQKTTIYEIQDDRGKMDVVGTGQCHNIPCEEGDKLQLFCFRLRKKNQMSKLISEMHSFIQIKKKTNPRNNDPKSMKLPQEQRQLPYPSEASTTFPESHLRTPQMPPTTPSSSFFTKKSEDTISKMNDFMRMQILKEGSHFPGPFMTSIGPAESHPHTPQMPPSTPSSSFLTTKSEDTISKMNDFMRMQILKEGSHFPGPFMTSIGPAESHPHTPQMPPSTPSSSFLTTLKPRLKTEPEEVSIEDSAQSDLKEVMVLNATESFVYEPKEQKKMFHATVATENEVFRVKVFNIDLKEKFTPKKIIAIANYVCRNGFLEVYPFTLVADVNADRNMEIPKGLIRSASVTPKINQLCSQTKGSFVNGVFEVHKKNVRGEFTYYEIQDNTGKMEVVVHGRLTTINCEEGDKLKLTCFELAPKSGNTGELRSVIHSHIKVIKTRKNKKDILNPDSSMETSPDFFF
Put plainly: co-immunoprecipitation and immunoblot, human melanoma cell lysates (FIGS. 8C, 10C).

In assay [2] the target is T3, Interferon-activable protein 204 (Mus musculus) (IFI204) (Mus musculus, UniProt P0DOV2 1-619).
T3 construct: also called IF204
T3 sequence: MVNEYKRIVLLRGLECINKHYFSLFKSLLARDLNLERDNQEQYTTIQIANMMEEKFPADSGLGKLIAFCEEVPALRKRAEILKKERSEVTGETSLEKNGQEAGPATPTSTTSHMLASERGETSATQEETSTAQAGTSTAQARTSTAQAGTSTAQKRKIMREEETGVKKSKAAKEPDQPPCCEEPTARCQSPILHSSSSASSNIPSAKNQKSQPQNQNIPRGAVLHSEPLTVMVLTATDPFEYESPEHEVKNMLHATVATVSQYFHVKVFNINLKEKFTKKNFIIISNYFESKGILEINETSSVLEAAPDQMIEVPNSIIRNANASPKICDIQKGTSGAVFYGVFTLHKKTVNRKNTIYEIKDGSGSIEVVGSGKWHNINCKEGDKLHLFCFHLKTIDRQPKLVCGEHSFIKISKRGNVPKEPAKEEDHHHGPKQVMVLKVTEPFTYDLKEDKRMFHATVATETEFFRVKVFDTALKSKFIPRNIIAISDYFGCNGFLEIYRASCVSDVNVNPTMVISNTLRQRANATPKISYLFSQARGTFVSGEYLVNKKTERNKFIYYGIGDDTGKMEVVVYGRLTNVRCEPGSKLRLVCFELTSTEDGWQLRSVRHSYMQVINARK
Put plainly: co-immunoprecipitation and immunoblot, B16 cell lysates (FIG. 8D). (A western blot detects proteins with antibodies after separation by electrophoresis.)

B1: MYL12A (other, human, UniProt P19105 1-171, looked up)
chain: MSSKRTKTKTKKRPQRATSNVFAMFDQSQIQEFKEAFNMIDQNRDGFIDKEDLHDMLASLGKNPTDEYLDAMMNEAPGPINFTMFLTMFGEKLNGTDPEDVIRNAFACFDEEATGTIQEDYLRELLTTMGDRFTDEEVDELYREAPIDKKGNFNYIEFTRILKHGAKDKDD
notes: endogenous protein co-purified from WM115 lysate
For the molecule B1, the binding result in the assay with Flag-tagged SHARPIN is “binds”.

B2: SLC25A4 (other, human, UniProt P12235 2-298, looked up)
chain: GDHAWSFLKDFLAGGVAAAVSKTAVAPIERVKLLLQVQHASKQISAEKQYKGIIDCVVRIPKEQGFLSFWRGNLANVIRYFPTQALNFAFKDKYKQLFLGGVDRHKQFWRYFAGNLASGGAAGATSLCFVYPLDFARTRLAADVGKGAAQREFHGLGDCIIKIFKSDGLRGLYQGFNVSVQGIIIYRAAYFGVYDTAKGMLPDPKNVHIFVSWMIAQSVTAVAGLVSYPFDTVRRRMMMQSGRKGADIMYTGTVDCWRKIAKDEGAKAFFKGAWSNVLRGMGGAFVLVLYDEIKKYV
notes: as for B1
As for B2, the binding result with Flag-tagged SHARPIN is on record as “binds”.

B3: SHARPIN (endogenous, human melanoma cells WM115 / A375) (other, UniProt Q9H0F6 1-387, looked up)
chain: MAPPAGGAAAAASDLGSAAVLLAVHAAVRPLGAGPDAEAQLRRLQLSADPERPGRFRLELLGAGPGAVNLEWPLESVSYTIRGPTQHELQPPPGGPGTLSLHFLNPQEAQRWAVLVRGATVEGQNGSKSNSPPALGPEACPVSLPSPPEASTLKGPPPEADLPRSPGNLTEREELAGSLARAIAGGDEKGAAQVAAVLAQHRVALSVQLQEACFPPGPIRLQVTLEDAASAASAASSAHVALQVHPHCTVAALQEQVFSELGFPPAVQRWVIGRCLCVPERSLASYGVRQDGDPAFLYLLSAPREAPATGPSPQHPQKMDGELGRLFPPSLGLPPGPQPAASSLPSPLQPSWSCPSCTFINAPDRPGCEMCSTQRPCTWDPLAAAST
For the molecule B3, the binding result in assay [1] is on record as “binds”.

B4: GSTP1 (other, human, UniProt P09211 2-210, looked up)
chain: PPYTVVYFPVRGRCAALRMLLADQGQSWKEEVVTVETWQEGSLKASCLYGQLPKFQDGDLTLYQSNTILRHLGRTLGLYGKDQQEAALVDMVNDGVEDLRCKYISLIYTNYEAGKDDYVKALPGQLKPFETLLSQNQGGKTFIVGDQISFADYNLLDLLLIHEVLAPGCLDAFPLLSAYVGRLSARPKLKAFLASPEYVNLPINGNGKQ
notes: as for B1
With B4, the binding result with Flag-tagged SHARPIN was “binds”.

B5: MYL128 (other, human, UniProt O14950 1-172, looked up)
chain: MSSKKAKTKTTKKRPQRATSNVFAMFDQSQIQEFKEAFNMIDQNRDGFIDKEDLHDMLASLGKNPTDAYLDAMMNEAPGPINFTMFLTMFGEKLNGTDPEDVIRNAFACFDEEATGTIQEDYLRELLTTMGDRFTDEEVDELYREAPIDKKGNFNYIEFTRILKHGAKDKDD
notes: endogenous protein co-purified from WM115 lysate; also called MYL12B
With B5, the binding result with Flag-tagged SHARPIN is recorded as “binds”.

B6: SHARPIN (endogenous, murine B16 melanoma cells) (other, mouse, UniProt Q91WA6 1-380, looked up)
chain: MSPPAGGAAVAADPASPVVLLAVHAAVRPLGAGQDAEAQPRKLQLIADPERPGRFRLGLLGTEPGAVSLEWPLEAICYTVRGPNQHELQPPPGGPGTFSVHFLDPEEAQQWAALVRDATAEGQNGSGSPAPAPAPAMCPISPPCSSMAQIPKATQPEVDLPQSSGNFKKEELATRLSQAIAGGDEKAAAQVAAVLAQHHVALNVQLMEAWFPPGPIRLQVTVEDATSVLSSSSSAHVSLKIHPHCSIAALQDQVFSEFGFPPAVQRWVIGRCLCMPERSLASYGVSQDGDPAFLYLLSAPREVSGQSLQNSKMDRKLGLFPQSLGLPHDLQPSSSSLPSPSQPGWSCPSCTFINASNRPGCEMCSTQRPCAWDPLAAAST
As to B6, the binding result in assay [2] is “binds”.
